Reference: publication doi:10.1101/054106

Biological target: potato ADP-glucose pyrophosphorylase (AGPase) small subunit, wild type (potato (S. tuberosum)) (UniProt P23509)
Assay: native gel or EMSA

Chain of potato ADP-glucose pyrophosphorylase (AGPase) small subunit, wild type (potato (S. tuberosum)) (P23509 73-521): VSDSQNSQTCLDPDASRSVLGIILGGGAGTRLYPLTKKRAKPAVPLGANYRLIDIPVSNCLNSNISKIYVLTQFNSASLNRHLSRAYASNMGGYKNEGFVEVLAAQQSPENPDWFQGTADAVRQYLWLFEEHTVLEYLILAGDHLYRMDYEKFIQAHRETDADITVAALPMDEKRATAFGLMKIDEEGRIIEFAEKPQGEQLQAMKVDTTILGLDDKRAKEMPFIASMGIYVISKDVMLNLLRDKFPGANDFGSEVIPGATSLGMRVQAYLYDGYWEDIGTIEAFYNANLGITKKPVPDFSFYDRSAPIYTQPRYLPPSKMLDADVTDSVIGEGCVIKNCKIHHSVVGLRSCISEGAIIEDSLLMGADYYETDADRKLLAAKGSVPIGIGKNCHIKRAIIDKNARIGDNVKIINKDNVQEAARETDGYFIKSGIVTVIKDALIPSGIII

| percent in the form of heterotetramers | percent of total band intensity in the dimer band | Substance |
| --- | --- | --- |
| 90% | – | potato ADP-glucose pyrophosphorylase (AGPase) large subunit, E370G mutant (enzyme) |
| – | 40% | potato ADP-glucose pyrophosphorylase (AGPase) large subunit, E370R mutant (enzyme) |
